These results are taken from a protein production outcome set (Wang et al. 2014).

The nature of this data set: label from the status in PepcDB records.
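Note: failed if final PepcDB status was selected cloned or expressed and not failed if soluble or beyond.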

Turning to “MAIPHYRLASFSSIIDDEIDKSVLVNLVGAIYDVGEFINTRPKQNIVDDLTLTFKISDNENRVLECLATKKEALDFDHNYRQYGGGVIVAVLGWWKIERYFDGTKNIRVCTACPISTVFP”, the protein production result is listed as “failed”. Under “MAISKALIASLLISLLVLQLVQADVENSQKKNGYAKKIGFRGGRGCVTERAGLAATGATVCLRVRTETTTSASATLASPPTVDAASAHKKKQSS” stands “failed”. Under “MAISQMKKLAMVFEKDYLDLVLKTLQQSQLVEVRDMKQLKHWQDAFNKGNVKLPQIVQYDLTHQKPLLDDEALQYLLQSQQELENGLASLSAFLPPIGKLTALRQKTPSLSFKQFEERHRQQAAQTALKMMSQKIERLEQLQSKIDQLTEYCQELEKWRSLTVLPQDLAQFHFLSARVGTIPSTANNHFYHQLKQHKGLFIEEVYHTEFEYGLVLFWQAQDTIHLQKYQFKPLLYKEQLLPSEQLRINKELLTNWLAEKDSLLKELRQSQKILAQLQVEIDYVLSQYQRQQTKKQLLGTRHLIALEGWIEADSVNQLKGLMTKTLGDMFYLDSYDVTPDDWEDVPIKLRNHRYIAPFELVTEMYALPKYQEKDPTPFLAPLYLTFFGMMVADLGYGLLLYAVTLAALVFFNLQKTSKRLVTFFNILAISVAIWGLIYGSFFGFDLPVALLSTKTDVITILVVSLLFGFVTLIFGLLLGAWQQVRMKAYATAYTSSLAWTFILLGLLLFILGKNVSGLAYLSVIGKWLALGNAFGILVVSLLKSKSLLGLGSGLYNLYGISSYLSDLVSFTRLMALGLSGASIGAAFNMIVGIFPPVTRFTVGIFIFILLHAINIFLSMLSGYVHGARLIFVEFFGKFYEGGGKAFNPLKLADNYVNVNEETDLEDN” stands “failed”. For “MAIVKMNKFTLLAFESEKEKLLKKIQSSSEVEFINLQDEEKVEGNEVFESLSKDDLDAETTLIEENVSKTRSALDFLKEFVAEVGGLKALKAGKESLTLDELEVKVENSNWEVVYSEVKKMERELATLENEKTKLLGEIEILEPWQSFDAPLGELNNFEKVVAFLGVISSQNLENMKNEIESEFKESYIEVISNTDQDSYVFVMTMKERAEEMDEVLKNFGFSAFQTKYKEKASVLVEEFKLKIQEIEAQKSDLKGVLSNYREEKRTLELAYEYYSNILLRKEASENFLKTDKVVVIQGWVPKNDNSSLEGIIQSSVGDMYYLEFEEVKEEEVAEVPVKLHNKGPAAAFDSITEMYSLPRYDEIDPTPLLTPFYLVFFGMMVADLGYGLVLFVGSLLAMKLLNLDEAQEKFAKFFMYLSIATTIAGAVFGTAFGFELKSIGLINPSKDTNLLLILSVGFGVIQIFFGLFIKAYMLIRDKQYLYALFDVGSWIMLLIGLPMIFFDGPISLVGKVLSIVGSILIILTQGRDEETKGAQIGQGLYALYGITGYVGDLVSYTRLMALGIAGGSIAAALNLIIGMFPGIAVIIVGPLFFIAAHTFNMLLSLLGAYVHTARLQYVEYFSKFYEGGGKAFTPFRTINKFITIKRNK” the value was “failed”; for “MAKDTDIRSRMNRIEEIIDQLDADEVSLDEGSELYEEGQELLTEIRERLHEGQGEVIEIK”, “not failed”; for “MAKFIMVVGTSSNSGKTVLVSGICRMLSNKGYKVAPFKSQNMSLNSRVSVEDGEIAVAQYTQAMAARAEPSVHFNPILLKPKGNFVSQVIVHGNPYEDKDYNEYRSKKDDFLVKIKESIDYLDKNYDYVVIEGAGSCCEINLLNDDIANLKVAEIAGADAILVSDIDRGGVFASIYGTVQLLPENWKKLLKGFVINKFRGNIDVLKDGFEKIEELTNIPVIGTIPYDETLVLPEEDSQALDGKRLEHHHHHH”, “failed”.

“MAKGVRVGLKNIHFAKILTEDENGVTYDTPVKIGNAIEASITPNTNSETLYADDGPSEVESSLGETEVEIGIDQLSTTAQALLLGHTILSDGVLEKKETDIAPYGALLFESATTGGKSKLYALYKGRFQPQEESFATKGLEHHHHHH”: the protein production entry is “not failed”. For “MAKGYWIAQVDVRDSERYKDYVSTAKPAFERFGANFLARGGSVTELEGTARARNVVIEFPSVQHAIDCYNSPEYQAAAKIRQEVADAEMMIVEGI” the value was “not failed”. Under “MAKIITPLSANQVKNAKPGDKLYKLSDGGGLALWVYPTGRRSWKLSFMQDGRQQTISLGRYPDFSLAEAREWREEVRRKRAHGENVVNKKVRADFAFEKVARDWFVRWSKGRSEKYAGQVMRNFERWVFPAIGNLDIRQVRTADVVGCLRVMEARGIVDTLRKTKNSLKMVFAFAVGSGMMEINPVAQIGSGVFERVKTKNMTALSPSELPRLIDFLEQRNEFAVYAGRVHIHPVTRFCIYWLLLTMTRIREAALMEWSELDGEVWRIPAERKKERRGHDVPLSRAMRWVLDQARGLNVNGRFVFESVNFQGHINKESPHVAMRRSGLDTTAHGLRSLARTYLREVLKVYNDVAEKLLAHSLGTRTQTAYNRSELWEERKDAPERWGNDVLRLADNGK” stands “failed”; under “MAKIKFFALGGQDERGKNCYVLEIDNDVFIFNVGSLTPTTAVLGVKKIIPDFSWIQENQARVKGIFIGNAITENLGSLEFLFHTVGFFPIYTSSIGASIIKSKINENKLNIARDKLEIHELKPLETIEISNHSITPFKVSSSLPSSFGFALNTDNGYIVFIDDFIVLNDKNIAFENQLNQIIPKLSDNTLLLITGVGLVGRNSGFTTPKHKSLEQLNRIITPAKGRIFVACYDSNAYSVMTLAQIARMQNRPFIIYSQSFVHLFNTIVRQKLFNNTHLNTISIEEINNSTNSIVVLTSPPDKLYAKLFKIGMNEDERIRYRKSDTFIFMTPKVAGYEEIEAQILDDIARNEVSYYNLGREILSIQASDEDMKFLVSSLKPKYIIPTGGLYRDFINFTMVLKQAGAEQNQILILFNGEVLTIENKKLDSKKNELKLNPKCVDSAGLQEIGASIMFERDQMSESGVVIIIIYFDQKKSEFLNEITYSFLGVSLDVPEKDKLKTKMEELIKKQINDIKDFTTIKKRIGKEISKELKVSIKRAVMNLFTKMTSKAPLILSTIISI”, “failed”.

As for “MAKKNKPTECPAGEKWAVPYADFLSLLLALFIALYAISAVNKSKVEALKTEFIKIFNYAPKPEAMQPVVVIPPDSGKEEEQMASESSKPASQNTETKATIARKGEGSVLEQIDQGSILKLPSNLLFENATSDAINQDMMLYIERIAKIIQKLPKRVHINVRGFTDDTPLVKTRFKSHYELAANRAYRVMKVLIQYGVNPNQLSFSSYGSTNPIAPNDSLENRMKNNRVEIFFSTDANDLSKIHSILDNEFNPHKQQE”, the protein production result was “failed”. Take “MAKKQLSLTRLSFPIFWDLLSKYLTVIINTAMVSHYSNFLVGAMGAGNQILDLFITIFSFLSVGCSVLIAQAIGAKDHVLARKVIHQSLFLNALLGFVCGVLILWHGEYLLYLLKIPQELLKDSEIYLHMLAICLFFDAIGIVLAAIVRVYNMAYWVMFIGFLMDIVVICGNYYVLHYTKSELFGIGLSNIFARIVAIVALFAILFYKLKIHLKIKEMIKLEKEVLKKVLNIGGFSAGENLLWIVQYTIAFAFVASLGEASLSVQTIYFQISMLIMLIGQATSIANEIIVGKLIGARYENIAYKHAWRALYFSVIASALVALLNYLCQDFTMQILGLKEELKNLMIPLFALSIFLEISRTFNIVMVNSLRASGDAKFPFFSGLVFMMGVSLPVGYVLCFHFNLGILGVWIGFCADEFLRGMVNSYRWKSKKWQGKALV”: the protein production entry is reported as “failed”.

For the sequence “MAKKSTRTTPEDSQASTTDSAATSTASEATQAATSATDDQAEQTTAVDPTQQITDLKAQLDAKDDQLLRAQAEIVNMQNRNKKEQAALLKYDGQALAKDVLPVLDNLERALATPADDEAAQQLKKGVEMVYGHLQDALKKHGVTEVAAAGEKFDPNIHQAVQTVPVDDDHPADTVVQVLQRGYLLKDRTLRPAMVVVAQ”, the protein production entry is “failed”.

Regarding “MAKKVVGEIKLQIPAGKANPSPPVGPALGQRGVNIMEFCKAFNERTKDMGSFNIPVIITVYQDKSFTFITKKPPVTDLIKKASGVEKGSDNPLKNKIAKLTHKQVEEIAQLKMEDLNTSTMEAAKKIVMGSARSMGVEVVD”, the protein production result is reported as “failed”. Under “MAKLRVGIVFGGKSAEHEVSLQSAKNIVDAIDKTRFDVVLLGIDKAGQWHVNDAENYLQNADDPAHIALRPSAISLAQVPGKHQHQLINAQNGQPLPTVDVIFPIVHGTLGEDGSLQGMLRVANLPFVGSDVLSSAACMDKDVAKRLLRDAGLNIAPFITLTRTNRHAFSFAEVESRLGLPLFVKPANQGSSVGVSKVANEAQYQQAVALAFEFDHKVVVEQGIKGREIECAVLGNDNPQASTCGEIVLNSEFYAYDTKYIDDNGAQVVVPAQIPSEVNDKIRAIAIQAYQTLGCAGMARVDVFLTADNEVVINEINTLPGFTNISMYPKLWQASGLGYTDLISRLIELALERHTANNALKTTM” stands “not failed”. In the case of “MAKLTESMTNVLEGDSMDQDVESPVAIHQPKLPKQARDDLPRHISRDRTKRKIQRYVRKDGKCNVHHGNVRETYRYLTDIFTTLVDLKWRFNLLIFVMVYTVTWLFFGMIWWLIAYIRGDMDHIEDPSWTPCVTNLNGFVSAFLFSIETETTIGYGYRVITDKCPEGIILLLIQSVLGSIVNAFMVGCMFVKISQPKKRAETLVFSTHAVISMRDGKLCLMFRVGDLRNSHIVEASIRAKLIKSKQTSEGEFIPLNQTDINVGYYTGDDRLFLVSPLIISHEINQQSPFWEISKAQLPKEELEIVVILEGMVEATGMTCQARSSYITSEILWGYRFTPVLTLEDGFYEVDYNSFHETYETSTPSLSAKELAELASRAELPLSWSVSSKLNQHAELETEEEEKNLEEQTERNGDVANLENESKV”, the protein production entry is “failed”. Under “MAKNTFTPELLEKHFTKNEWKKGARIFQANGVKTCALDGEVIRGVVFSERSRESSYLTRLVFDGKFGDIASYCDCYVGRDCKHGSALAQCYIHEHFDRNSIATSETIIDKWLNRFQAQPTRYQPNTQQKSLLYFLKPNPYNEDDFLTLGIKSARPKNSGGWNSSIGSEYSASSLINSAYANDEDVAVLTELMRTNQYGDTIKYFDLFERIIKTNRSFWHTTYDLSEPVTLSEPLEAEWQWLALGNSLHTLKLVLMQPSESIRIIKAQPLCFYDEEKNCFGKINTNTQCDFEAGLLNSPIFEEDKLPWIMSKLSMSLGDAVKRLPKPKTKYSQELTQPDVYLHFTTPVASNRQTGYVQVNFSYQGNLVNPHDENVTITPSNVTKLSIDSDAQSDADSNIESGAYSNIEDEVERENVSPREIKIYRDLAFEQTVIDKLTTLKFNPQPKPKRYTYTSQDDLNKSKTPEFAMLMQGSVLWQRFLHQELSPLEDLGWHITFADDFYYKALSTDSVFDAEVMETDDHDFFSLGLNLTIDGKKMPAFPILLSAIEQLPRSALLDREKEDLISPDSPIYVDLDNGGFVALRYQSVQPILKQFIELFMPNALSHDGTIELSRFQGHQTLSMLDDQGMIAKGTSKLRALADKLKDFQQVTTIPVPEGLNATLRTYQHQGLNWLQFLREYQLNGILADDMGLGKTIQTLAHLLIEKQQGRLTKPILIVAPTSVIFNWANEIDKFTPQLSYQVLHGNKRHEQFGCLEGVENGENQVDIIITSYALITKDLAHYTDRKFYYLVLDEAHYIKNTKTKLYQAFLTLKAQHKLCLTGTPMENHLGEFWAQFNFLLPGFLGGQRQFTKLFRTPIEKHGELERKQLLNQRIKPFILRRTKDKIATELPPKTEIIQTLRIEGKQAELYESVRLAMDSRLKDIIADKGLKRSQIEVLDALLKLRQVCNHPKLLKLEGAKKVNQSAKLDYLMETLPEQIDEGRKILIFSQFTSMLSLIEDELIDAGIGYVKLTGSTTKRQEVVDKFQRGEVPVFLISLRAGGVGLNLTAADTVIHFDPWWNPAVENQATDRAYRIGQNKPVFVYKLIIENSIEEKIQKIQQNKAELAKALLSEEVSDNKLSLTDDILDSLLTPLS” stands “failed”; under “MAKSEEIIRERYKVMAPRIIKALNQRNFEAYFCETSEKAVECALSLIPQGASVAWGGSMTLEEIGLIQRLKEGNYQVIDRDTAKSQEERFSLMRQALLSDVYLASVNAMSEDGIMVNIDGRGNRISAIAFGPKTVILVVGMNKICRDLESARKRAHTYAAPNNALRLGLELPCTKTGCCFDCNKNNPSSICAQIVEMHSSIVPGRIKVILVGENLGL”, “failed”.
